According to patent US20210388337A1, “PROTEIN-POLYMER CONJUGATES AND METHODS FOR THEIR PREPARATION” (Carnegie Mellon University, priority 2018, published 2021):

Target: Biotin-aprotinin (UniProt P00974)
Experiment: stopped-flow tryptophan fluorescence, avidin 0.5 µM, biotin-protein 5.0 µM

Native avidin, sequence (P02701 25-152 limits assumed): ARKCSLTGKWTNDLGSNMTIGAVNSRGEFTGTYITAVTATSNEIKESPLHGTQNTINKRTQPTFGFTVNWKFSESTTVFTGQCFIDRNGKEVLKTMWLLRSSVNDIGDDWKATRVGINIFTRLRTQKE

Substance: Native avidin (from UniProt P02701 25-152)
- k (kobs, observed first-order rate constant): 73.5 s⁻¹
